Data set [1] has as its system Saccharomyces cerevisiae. In words: protein stability index of tFT-peptide fusion (C-terminal peptide) (PSI (0-1 scale)); higher = more stable (slower turnover). Conditions: genetic background: wild type; temperature: 30 C.
The subject of data set [2] is Saccharomyces cerevisiae. Described as above. On the procedure:
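MPS profiling in S. cerevisiae of the tFT-X12 degron library: putative degron peptides plus stable controls, 12 aa, fused to the C-terminus of a sfGFP-mCherry timer. Cells are FACS-sorted into 8 mCherry/sfGFP bins and deep-sequenced. PSI runs from 0 (unstable) to 1 (stable). Backgrounds are wild type, das1Δ and doa10Δ at 30 °C, and wild type, das1Δ, cdc34-1 and cdc53-1 at 37 °C; 2-3 technical replicates each.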

The mark [3] stands for this setting: genetic background: cdc34-1, temperature: 37 C.
[4] abbreviates: genetic background: cdc53-1, temperature: 37 C.
[5] abbreviates: genetic background: das1 deletion, temperature: 30 C.
Setting [6] is: genetic background: das1 deletion, temperature: 37 C.
[7] abbreviates: genetic background: doa10 deletion, temperature: 30 C.
[8] abbreviates: genetic background: wild type, temperature: 30 C.
[9] abbreviates: genetic background: wild type, temperature: 37 C.

± gives the standard deviation of the averaged measurements.
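Note: PSI is a weighted mean of sequencing reads over stability bins, variants kept only with over 10 reads, mCherry proximal and sfGFP distal, peptide attached via GGGS linker.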

With WWGIVIVGGLGC, the protein stability index in data set [1] stood at 0.489 ± 0.051; in data set [2] (setting [3]) it was 0.526 ± 0.0069; in data set [2] (setting [4]), 0.566 ± 0.019; in data set [2] (setting [5]) it was 0.423 ± 0.019; in data set [2] (setting [6]) it was 0.5691 ± 0.00075; in data set [2] (setting [7]), 0.384 ± 0.02. For the same sequence, the protein stability index in data set [2] (setting [8]) came to 0.404 ± 0.011; in data set [2] (setting [9]) it was 0.564 ± 0.024.
Turning to YAFTCFLLVVAP, the protein stability index in data set [1] was 0.237 ± 0.013; in data set [2] (setting [3]), 0.172 ± 0.0073; in data set [2] (setting [4]), 0.23 ± 0.011; in data set [2] (setting [5]), 0.167 ± 0.021; in data set [2] (setting [6]), 0.302 ± 0.011; in data set [2] (setting [7]), 0.1642 ± 0.0014. The protein stability index in data set [2] (setting [8]) stood at 0.16 ± 0.015; in data set [2] (setting [9]), 0.259 ± 0.022.
As for YFFGWSVSLLIL, the protein stability index in data set [1] is 0.184 ± 0.019; in data set [2] (setting [3]) it was 0.133 ± 0.014; in data set [2] (setting [4]), 0.251 ± 0.039; in data set [2] (setting [5]), 0.192 ± 0.035; in data set [2] (setting [6]) it was 0.322 ± 0.0091; in data set [2] (setting [7]) it was 0.108 ± 0.015. For the same sequence, the protein stability index in data set [2] (setting [8]) turned out to be 0.124 ± 0.021; in data set [2] (setting [9]), 0.2397 ± 0.0019.
Turning to YFLAMFIISGGV, the protein stability index in data set [1] was 0.478 ± 0.073; in data set [2] (setting [3]) it was 0.371 ± 0.032; in data set [2] (setting [4]), 0.435 ± 0.032; in data set [2] (setting [5]), 0.28 ± 0.034; in data set [2] (setting [6]) it was 0.4798 ± 0.0021; in data set [2] (setting [7]), 0.248 ± 0.011. For the same sequence, the protein stability index was 0.263 ± 0.042 in data set [2] (setting [8]) and 0.443 ± 0.031 in data set [2] (setting [9]).
For YILPTPTVISLA, the protein stability index stood at 0.337 ± 0.029 in data set [1]; 0.262 ± 0.025 in data set [2] (setting [3]); 0.271 ± 0.006 in data set [2] (setting [4]); 0.249 ± 0.034 in data set [2] (setting [5]); 0.3667 ± 0.0033 in data set [2] (setting [6]); 0.211 ± 0.0069 in data set [2] (setting [7]). The results for the protein stability index in data set [2] (setting [8]) and in data set [2] (setting [9]) were 0.256 ± 0.021 and 0.326 ± 0.01, respectively.
With YLGPHLRWARCV, the protein stability index in data set [1] is 0.254 ± 0.015; in data set [2] (setting [3]), 0.495 ± 0.018; in data set [2] (setting [4]) it was 0.715 ± 0.02; in data set [2] (setting [5]), 0.662 ± 0.027; in data set [2] (setting [6]) it was 0.768 ± 0.025; in data set [2] (setting [7]) it was 0.1228 ± 0.00053. The protein stability index in data set [2] (setting [8]) was found to be 0.125 ± 0.016; in data set [2] (setting [9]), 0.183 ± 0.033.
For the sequence YLSLPSSIFLCF, the protein stability index in data set [1] came out at 0.422 ± 0.085; in data set [2] (setting [3]) it was 0.501 ± 0.022; in data set [2] (setting [4]), 0.504 ± 0.0066; in data set [2] (setting [5]), 0.461 ± 0.018; in data set [2] (setting [6]), 0.59 ± 0.019; in data set [2] (setting [7]), 0.498 ± 0.024. Besides, the protein stability index in data set [2] (setting [8]) was 0.38 ± 0.015; in data set [2] (setting [9]), 0.5422 ± 0.0047.
Consider YLTLAGFPLNLF, for which the protein stability index stood at 0.469 ± 0.041 in data set [1]; 0.666 ± 0.014 in data set [2] (setting [3]); 0.7399 ± 0.0022 in data set [2] (setting [4]); 0.649 ± 0.017 in data set [2] (setting [5]); 0.762 ± 0.0092 in data set [2] (setting [6]); 0.273 ± 0.0065 in data set [2] (setting [7]). The protein stability index was 0.314 ± 0.017 in data set [2] (setting [8]) and 0.531 ± 0.011 in data set [2] (setting [9]).
Take YNNKITRYRRDS: the protein stability index is 0.52 ± 0.082 in data set [1]; 0.654 ± 0.053 in data set [2] (setting [3]); 0.731 ± 0.034 in data set [2] (setting [4]); 0.661 ± 0.055 in data set [2] (setting [5]); 0.752 ± 0.0077 in data set [2] (setting [6]); 0.388 ± 0.012 in data set [2] (setting [7]). Also, the protein stability index in data set [2] (setting [8]) worked out at 0.375 ± 0.024; in data set [2] (setting [9]), 0.612 ± 0.0082.
Take YRNRKMYCITNC: the protein stability index in data set [1] came to 0.423 ± 0.014; in data set [2] (setting [3]), 0.682 ± 0.03; in data set [2] (setting [4]), 0.737 ± 0.017; in data set [2] (setting [5]), 0.636 ± 0.038; in data set [2] (setting [6]) it was 0.743 ± 0.018; in data set [2] (setting [7]), 0.207 ± 0.044. Further, the protein stability index in data set [2] (setting [8]) came to 0.26 ± 0.017; in data set [2] (setting [9]), 0.51 ± 0.058.
With YTHRYFVRLFAV, the protein stability index came out at 0.3123 ± 0.0026 in data set [1]; 0.518 ± 0.047 in data set [2] (setting [3]); 0.708 ± 0.0076 in data set [2] (setting [4]); 0.504 ± 0.019 in data set [2] (setting [5]); 0.6558 ± 0.0057 in data set [2] (setting [6]); 0.206 ± 0.0073 in data set [2] (setting [7]). The protein stability index in data set [2] (setting [8]) was 0.2 ± 0.014; in data set [2] (setting [9]) it was 0.405 ± 0.0098.
As for YVLVVSFLACVF, the protein stability index was found to be 0.192 ± 0.012 in data set [1]; 0.0628 ± 0.013 in data set [2] (setting [3]); 0.172 ± 0.053 in data set [2] (setting [4]); 0.142 ± 0.03 in data set [2] (setting [5]); 0.266 ± 0.0094 in data set [2] (setting [6]); 0.104 ± 0.021 in data set [2] (setting [7]). For the same sequence, the protein stability index in data set [2] (setting [8]) was found to be 0.13 ± 0.014; in data set [2] (setting [9]) it was 0.234 ± 0.0088.
With YWIFCYFFWGGV, the protein stability index in data set [1] was found to be 0.455 ± 0.037; in data set [2] (setting [3]) it was 0.392 ± 0.032; in data set [2] (setting [4]) it was 0.483 ± 0.0098; in data set [2] (setting [5]), 0.358 ± 0.032; in data set [2] (setting [6]) it was 0.518 ± 0.008; in data set [2] (setting [7]), 0.3153 ± 0.0014. Besides, the protein stability index in data set [2] (setting [8]) came to 0.35 ± 0.015; in data set [2] (setting [9]), 0.501 ± 0.02.

For the origin of these results see the supplement of paper PMC10724198.
